One substance from patent US20250277038A1 can be followed below.

As usually defined, the Kd is the equilibrium constant for the complex coming apart. For orientation: koff means a measure of how fast the partners let go of each other. In general, kon refers to the rate constant with which the complex forms.

The target in assay [1] is human PD-L1 (Acro, Catalog Number: H5229) (human) (UniProt Q9NZQ7). Briefly: BLI, Octet RED96e, antibody on AHC sensor, antigen 100 nM, 1:1 fit. (In BLI a coated tip is dipped into the sample, and binding shifts an interference pattern.)
human PD-L1 (Acro, Catalog Number: H5229) (human), sequence (Q9NZQ7 19-238 limits assumed): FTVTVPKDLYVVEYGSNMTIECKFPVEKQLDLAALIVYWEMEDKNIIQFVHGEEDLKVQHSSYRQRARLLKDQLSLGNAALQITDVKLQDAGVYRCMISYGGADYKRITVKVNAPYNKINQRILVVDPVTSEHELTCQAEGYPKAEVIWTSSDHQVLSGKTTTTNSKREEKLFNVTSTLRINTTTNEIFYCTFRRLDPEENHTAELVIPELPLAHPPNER
For assay [2], the target named is human PD-L1 protein on HEK293 cell (human) (UniProt Q9NZQ7). Briefly: FACS blocking assay: antibody titrated against Biotin-PD-1-mFc on HEK293-hPD-L1 cells, SA488 detection.
human PD-L1 protein on HEK293 cell (human), sequence (Q9NZQ7 19-290): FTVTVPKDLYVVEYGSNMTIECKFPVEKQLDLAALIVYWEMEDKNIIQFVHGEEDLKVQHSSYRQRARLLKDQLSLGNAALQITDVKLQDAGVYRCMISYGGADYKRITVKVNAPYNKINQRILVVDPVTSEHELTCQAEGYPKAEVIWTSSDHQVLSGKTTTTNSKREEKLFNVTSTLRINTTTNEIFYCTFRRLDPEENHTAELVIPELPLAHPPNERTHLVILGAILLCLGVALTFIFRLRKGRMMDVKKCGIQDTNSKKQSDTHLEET
Assay [3] addresses monkey PD-L1 protein on CHOK1 cell (monkey (cyno)). Nature of the assay: FACS blocking assay: antibody titrated against Biotin-PD-1-mFc on CHOK1-cynoPD-L1 cells, SA488 detection.

Take Atezolimumab (antibody): in assay [1], the Kd was determined as 0.484 nM, the koff was determined as 0.000311 s⁻¹ and the kon amounted to 644000 M⁻¹ s⁻¹. This substance also had an IC50 (read off the curve) in assay [2] of 0.08 µg/mL. Besides, the IC50 (read off the curve) in assay [3] stood at 0.9 µg/mL.
